Experimental data from patent US20250352667A1.
Residue numbers refer to the chain shown, from its start. Names may count otherwise. One block for each binder: values may come before it.

Experiments:
[1] = molecular target: KEAP1 (wild-type full-length), His-tagged (human) (UniProt Q14145); assay: AlphaScreen; FLAG-NRF2 wt isoform 1 4.8 nM, His-KEAP1 150 nM; Rep 2; positive control for Q75R
[2] = molecular target: KEAP1 (wild-type full-length), His-tagged (human) (UniProt Q14145); assay: AlphaScreen; 19.2 nM FLAG-NRF2, 150 nM His-KEAP1; Rep 3; control for I86V
[3] = molecular target: KEAP1 (wild-type full-length), His-tagged (human) (UniProt Q14145); assay: AlphaScreen; FLAG-NRF2 wt isoform 1 38.4 nM, His-KEAP1 150 nM; Rep 2; positive control for Q75R
[4] = molecular target: KEAP1 (wild-type full-length), His-tagged (human) (UniProt Q14145); assay: AlphaScreen; NRF2 wt isoform 1 307.2 nM, KEAP1 150 nM; signal against NRF2-only control; control for Q75R
[5] = molecular target: KEAP1 (wild-type full-length), His-tagged (human) (UniProt Q14145); assay: AlphaScreen; FLAG-NRF2 wt isoform 1 38.4 nM, His-KEAP1 150 nM; Rep 2; positive control for I86V
[6] = molecular target: KEAP1 (wild-type full-length), His-tagged (human) (UniProt Q14145); assay: AlphaScreen; over 9.6, 19.2 and 38.4 nM NRF2; 150 nM His-KEAP1
[7] = molecular target: KEAP1 (wild-type full-length), His-tagged (human) (UniProt Q14145); assay: AlphaScreen; FLAG-NRF2 I86V 76.8 nM, His-KEAP1 150 nM; Rep 3
[8] = molecular target: KEAP1 (wild-type full-length), His-tagged (human) (UniProt Q14145); assay: AlphaScreen; FLAG-NRF2 Q75R 614.4 nM, His-KEAP1 150 nM; Rep 2

KEAP1 (wild-type full-length), His-tagged (human), sequence (Q14145 2-624 limits assumed): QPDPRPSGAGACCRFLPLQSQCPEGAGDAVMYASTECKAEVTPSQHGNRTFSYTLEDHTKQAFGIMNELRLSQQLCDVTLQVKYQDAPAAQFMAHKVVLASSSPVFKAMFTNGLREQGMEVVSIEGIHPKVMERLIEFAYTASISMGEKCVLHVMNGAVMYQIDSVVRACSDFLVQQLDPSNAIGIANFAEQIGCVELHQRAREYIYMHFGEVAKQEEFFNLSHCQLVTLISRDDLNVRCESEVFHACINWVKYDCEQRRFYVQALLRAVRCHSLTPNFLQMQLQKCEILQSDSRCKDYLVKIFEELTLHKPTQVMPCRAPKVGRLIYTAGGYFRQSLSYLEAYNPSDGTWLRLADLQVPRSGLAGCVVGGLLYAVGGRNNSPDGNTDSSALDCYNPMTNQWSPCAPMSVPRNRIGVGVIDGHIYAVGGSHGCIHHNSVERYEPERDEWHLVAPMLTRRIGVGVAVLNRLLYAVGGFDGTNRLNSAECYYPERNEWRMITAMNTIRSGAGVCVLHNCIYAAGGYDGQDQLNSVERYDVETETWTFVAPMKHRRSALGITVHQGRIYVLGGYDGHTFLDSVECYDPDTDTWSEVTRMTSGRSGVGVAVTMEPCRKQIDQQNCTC

- A-counts (NRF2 plus KEAP1) [1]: 754 A-counts
- A-counts [2]: 3040 A-counts
- A-counts (NRF2 plus KEAP1) [3]: 1450 A-counts
- S/N [4]: 1.4
- A-counts (NRF2 plus KEAP1) [5]: 2850 A-counts
B1: NRF2 isoform 1 (wild-type full-length), FLAG-tagged (protein)
chain: MMDLELPPPGLPSQQDMDLIDILWRQDIDLGVSREVFDFSQRRKEYELEKQKKLEKERQEQLQKEQEKAFFAQLQLDEETGEFLPIQPAQHIQSETSGSANYSQVAHIPKSDALYFDDCMQLLAQTFPFVDDNEVSSATFQSLVPDIPGHIESPVFIATNQAQSPETSVAQVAPVDLDGMQQDIEQVWEELLSIPELQCLNIENDKLVETTMVPSPEAKLTEVDNYHFYSSIPSMEKEVGNCSPHFLNAFEDSFSSILSTEDPNQLTVNSLNSDATVNTDFGDEFYSAFIAEPSISNSMPSPATLSHSLSELLNGPIDVSDLSLCKAFNQNHPESTAEFNDSDSGISLNTSPSVASPEHSVESSSYGDTLLGLSDSEVEELDSAPGSVKQNGPKTPVHSSGDMVQPLSPSQGQSTHVHDAQCENTPEKELPVSPGHRKTPFTKDKHSSRLEAHLTRDELRAKALHIPFPVEKIINLPVVDFNEMMSKEQFNEAQLALIRDIRRRGKNKVAAQNCRKRKLENIVELEQDLDHLKDEKEKLLKEKGENDKSLHLLKKQLSTLYLEVFSMLRDEDGKPYSPSEYSLQQTRDGNVFLVPKSKKPDVKKN

- A-counts (NRF2 plus KEAP1) [8]: 855 A-counts
B4: NRF2 isoform 1 (Q75R full-length), FLAG-tagged (protein)
chain: B1 chain with Q75R

Second part, the binder before the results:

B2: NRF2 isoform 1 (I28V full-length), FLAG-tagged (protein)
chain: B1 chain with I28V
- Standard Deviation (of binding percentage) [6]: 7.2%

B3: NRF2 isoform 1 (I86V full-length), FLAG-tagged (protein)
chain: B1 chain with I86V
- A-counts (NRF2 plus KEAP1) [7]: 2560 A-counts
